Measured values as given in the RNAGym collection of RNA variant scans (doi:10.7554/elife.80360).

B1: CPEB3 Ribozyme (parent)
chain: GGGGGCCACAGCAGAAGCGUUCACGUCGCGGCCCCUGUCAGAUUCUGGUGAAUCUGCGAAUUCUGCUGU

Variants of: B1
Experiment: self-cleavage, relative activity (ratio to wild type); higher = more cleavage; co-transcriptional

With GGGGGCCACAGCAGAAGGGUUCACGUCGCGGUCCCUGUCAGAUUCUGGUGAAUCUGCGAAUUCUGCUGU [C18G C32U] as the variant, how does the self-cleavage read?
Its self-cleavage is 0.195.

Which self-cleavage does the source give for GGGGGCCACAGCAGAAGGGUUCACGUCGCGGACCCUGUCAGAUUCUGGUGAAUCUGCGAAUUCUGCUGU [C18G C32A] here?
The self-cleavage was 0.105.

For GGGGGCCACAGCAGAAGGGUUCACGUCGCGGGCCCUGUCAGAUUCUGGUGAAUCUGCGAAUUCUGCUGU [C18G C32G], which self-cleavage is on record?
The self-cleavage was 0.195.

With GGGGGCCACAGCAGAAGGUUUCACGUCGCGGCCCCUGUCAGAUUCUGGUGAAUCUGCGAAUUCUGCUGU [C18G G19U] as the variant, how does the self-cleavage read?
The self-cleavage was 0.153.

Which self-cleavage does the source give for GGGGGCCACAGCAGAAGGAUUCACGUCGCGGCCCCUGUCAGAUUCUGGUGAAUCUGCGAAUUCUGCUGU [C18G G19A] here?
The self-cleavage was 0.114.

With GGGGGCCACAGCAGAAGGGUUCACGUCGCGGCCCCUGUCAGAUUUUGGUGAAUCUGCGAAUUCUGCUGU [C18G C45U] as the variant, how does the self-cleavage read?
The self-cleavage was 0.183.

Which self-cleavage does the source give for GGGGGCCACAGCAGAAGGGUUCACGUCGCGGCCCCUGUCAGAUUAUGGUGAAUCUGCGAAUUCUGCUGU [C18G C45A] here?
The self-cleavage was 0.0664.

Which self-cleavage does the source give for GGGGGCCACAGCAGAAGGGUUCACGUCGCGGCCCCUGUCAGAUUGUGGUGAAUCUGCGAAUUCUGCUGU [C18G C45G] here?
The self-cleavage was 0.113.

Which self-cleavage does the source give for GGGGGCCACAGCAGAAGGGUUCACGUCGAGGCCCCUGUCAGAUUCUGGUGAAUCUGCGAAUUCUGCUGU [C18G C29A] here?
Its self-cleavage is 0.16.

Which self-cleavage does the source give for GGGGGCCACAGCAGAAGGGUUCACGUCGUGGCCCCUGUCAGAUUCUGGUGAAUCUGCGAAUUCUGCUGU [C18G C29U] here?
The self-cleavage was 0.156.

With GGGGGCCACAGCAGAAGGGUUCACGUCGCGGCCCCUGUCACAUUCUGGUGAAUCUGCGAAUUCUGCUGU [C18G G41C] as the variant, how does the self-cleavage read?
The self-cleavage was 0.0964.

Which self-cleavage does the source give for GGGGGCCACAGCAGAAGGGUUCACGUCGCGGCCCCUGUCAAAUUCUGGUGAAUCUGCGAAUUCUGCUGU [C18G G41A] here?
The self-cleavage was 0.113.

Which self-cleavage does the source give for GGGGGCCACAGCAGAAGGGUUCACGUCGCGGCCCCUGUCAUAUUCUGGUGAAUCUGCGAAUUCUGCUGU [C18G G41U] here?
Its self-cleavage is 0.134.

With GGGGGCCACAGCAGAAGGGUUCACGUCGCGGCUCCUGUCAGAUUCUGGUGAAUCUGCGAAUUCUGCUGU [C18G C33U] as the variant, how does the self-cleavage read?
The self-cleavage was 0.226.

With GGGGGCCACAGCAGAAGGGUUCACGUCGCGGCGCCUGUCAGAUUCUGGUGAAUCUGCGAAUUCUGCUGU [C18G C33G] as the variant, how does the self-cleavage read?
The self-cleavage was 0.147.

Which self-cleavage does the source give for GGGGGCCACAGCAGAAGGGUUCACGUCGCGGCACCUGUCAGAUUCUGGUGAAUCUGCGAAUUCUGCUGU [C18G C33A] here?
Its self-cleavage is 0.193.

For GGGGGCCACAGCAGAAGGGUUCACGUCGCGGCCUCUGUCAGAUUCUGGUGAAUCUGCGAAUUCUGCUGU [C18G C34U], which self-cleavage is on record?
Its self-cleavage is 0.133.

With GGGGGCCACAGCAGAAGGGUUCACGUCGCGGCCACUGUCAGAUUCUGGUGAAUCUGCGAAUUCUGCUGU [C18G C34A] as the variant, how does the self-cleavage read?
The self-cleavage was 0.131.

Which self-cleavage does the source give for GGGGGCCACAGCAGAAGGGUUCACGUCGCGGCCGCUGUCAGAUUCUGGUGAAUCUGCGAAUUCUGCUGU [C18G C34G] here?
The self-cleavage was 0.153.

Which self-cleavage does the source give for GGGGGCCACAGCAGAAGGGUUCACGUCGCGGCCCCUUUCAGAUUCUGGUGAAUCUGCGAAUUCUGCUGU [C18G G37U] here?
Its self-cleavage is 0.0757.

For GGGGGCCACAGCAGAAGGGUUCACGUCGCGGCCCCUCUCAGAUUCUGGUGAAUCUGCGAAUUCUGCUGU [C18G G37C], which self-cleavage is on record?
The self-cleavage was 0.111.

Which self-cleavage does the source give for GGGGGCCACAGCAGAAGGGUUCACGUCGCGGCCCCUGUCAGAUUCUGGUGAAUAUGCGAAUUCUGCUGU [C18G C54A] here?
Its self-cleavage is 0.186.

Which self-cleavage does the source give for GGGGGCCACAGCAGAAGGGUUCACGUCGCGACCCCUGUCAGAUUCUGGUGAAUCUGCGAAUUCUGCUGU [C18G G31A] here?
The self-cleavage was 0.0986.

Which self-cleavage does the source give for GGGGGCCACAGCAGAAGGGUUCACGUCGCGUCCCCUGUCAGAUUCUGGUGAAUCUGCGAAUUCUGCUGU [C18G G31U] here?
Its self-cleavage is 0.181.

Which self-cleavage does the source give for GGGGGCCACAGCAGAAGGGUUCACGUCGCGCCCCCUGUCAGAUUCUGGUGAAUCUGCGAAUUCUGCUGU [C18G G31C] here?
The self-cleavage was 0.142.

With GGGGGCCACAGCAGAAGGGUUCACGUCGCGGCCCCUGUCAGAUUCUGGUGAAUCUGCGAAUUAUGCUGU [C18G C63A] as the variant, how does the self-cleavage read?
Its self-cleavage is 0.179.

With GGGGGCCACAGCAGAAGGGUUCACGUCGCGGCCCCUGUCAGAUUCUGGUGAAUCUGCGAAUUUUGCUGU [C18G C63U] as the variant, how does the self-cleavage read?
The self-cleavage was 0.136.

Which self-cleavage does the source give for GGGGGCCACAGCAGAAGGGUUCACGUCGCGGCCCUUGUCAGAUUCUGGUGAAUCUGCGAAUUCUGCUGU [C18G C35U] here?
Its self-cleavage is 0.203.

Which self-cleavage does the source give for GGGGGCCACAGCAGAAGGGUUCACGUCGCGGCCCGUGUCAGAUUCUGGUGAAUCUGCGAAUUCUGCUGU [C18G C35G] here?
The self-cleavage was 0.151.

With GGGGGCCACAGCAGAAGGGUUCACGUCGCGGCCCCUGUCAGAUUCUGGUGAAUCUGUGAAUUCUGCUGU [C18G C57U] as the variant, how does the self-cleavage read?
The self-cleavage was 0.145.

For GGGGGCCACAGCAGAAGGGUUCACGUCGCGGCCCCUGUCAGAUUCUGGUGAAUCUGAGAAUUCUGCUGU [C18G C57A], which self-cleavage is on record?
Its self-cleavage is 0.0895.

Which self-cleavage does the source give for GGGGGCCACAGCAGAAGGGUUCACGUCGCGGCCCCUGUCAGAUUCUGGUGAAUCUGCGAAUUCUGAUGU [C18G C66A] here?
The self-cleavage was 0.11.

For GGGGGCCACAGCAGAAGGGUUCACCUCGCGGCCCCUGUCAGAUUCUGGUGAAUCUGCGAAUUCUGCUGU [C18G G25C], which self-cleavage is on record?
The self-cleavage was 0.092.

Which self-cleavage does the source give for GGGGGCCACAGCAGAAGGGUUCACUUCGCGGCCCCUGUCAGAUUCUGGUGAAUCUGCGAAUUCUGCUGU [C18G G25U] here?
The self-cleavage was 0.151.

For GGGGGCCACAGCAGAAGGGUUCACGUCGCCGCCCCUGUCAGAUUCUGGUGAAUCUGCGAAUUCUGCUGU [C18G G30C], which self-cleavage is on record?
Its self-cleavage is 0.167.

Which self-cleavage does the source give for GGGGGCCACAGCAGAAGGGUUCACGUCGCAGCCCCUGUCAGAUUCUGGUGAAUCUGCGAAUUCUGCUGU [C18G G30A] here?
The self-cleavage was 0.236.

With GGGGGCCACAGCAGAAGGGUUCACGUCGCUGCCCCUGUCAGAUUCUGGUGAAUCUGCGAAUUCUGCUGU [C18G G30U] as the variant, how does the self-cleavage read?
Its self-cleavage is 0.183.

For GGGGGCCACAGCAGAAGGGUUCACGUCCCGGCCCCUGUCAGAUUCUGGUGAAUCUGCGAAUUCUGCUGU [C18G G28C], which self-cleavage is on record?
Its self-cleavage is 0.911.

Which self-cleavage does the source give for GGGGGCCACAGCAGAAGGGUUCACGUCUCGGCCCCUGUCAGAUUCUGGUGAAUCUGCGAAUUCUGCUGU [C18G G28U] here?
The self-cleavage was 0.129.
